# Assay results from patent US12042530B2, “Target peptides for immunotherapy and diagnostics” (University of Virginia Patent Foundation, priority 2012, dated 2024).
# Non-standard residues stand in square brackets, D forms with d. No end group written: not given here. pT = C[C@@H](OP(=O)(O)O)[C@H](N)C(=O)O; pS = N[C@@H](COP(=O)(O)O)C(=O)O
# How the values were obtained:
# [1] = biological target: T1, HLA-B*0702 (HLA-B7) peptide complexes (Homo sapiens, UniProt P01889); test: HLA-B*0702 phosphopeptides associated with leukemia samples (isolation of HLA-associated peptides); settings: for Copies/cell class, ALL1: acute lymphoblastic leukemia sample ALL1; for Copies/cell class, HCL1: hairy cell leukemia sample HCL1; for Copies/cell class, B Cell: healthy B cells; for Copies/cell class, T Cell: healthy T cells
# T1 construct: endogenous in cells; host or cells: JY B-lymphoblastoid line; primary ALL, CLL, HCL, AML samples; bone marrow; healthy B and T cells
# Source text: To identify naturally processed tumor-associated phosphopeptides, HLA-A*0201 (HLA-A2) and HLA-B*0702 (HLA-B7) peptide complexes from four (4) chronic lymphocytic leukemia (CLL) tumor samples, a mantle cell lymphoma sample (MCL), one acute lymphoblastic leukemia (ALL), and an acute myeloid leukemia (AML) sample, in addition to healthy splenic T and B-cells and the cultured lymphoblastoid cell line JY were isolated. These efforts yielded 10 HLA-A2-restricted and 86 HLA-B7-restricted phosphopeptide antigens (see Tables 6 and 7).
# All cell lines were grown at 37° C. with 5% CO2 in growth medium consisting of RPMI 1640 supplemented with 10% FCS and two mM L-glutamine. Blood or leukapheresis samples were taken from patients with high-burden leukemia in heparin. Tumor cells were recovered by layering the blood over density gradient (Ficoll) and collecting the tumor layer following centrifugation. The tumor was washed in tris-buffered saline (TBS). The purity of the tumor was assessed using flow cytometry and was >98% pure in all cases. For healthy T and B-cell populations, a normal spleen sample processed and tonsil sample was collected and lymphocytes released through mechanical disruption. Mononuclear cells were isolated using a density gradient and 10^9 T cells isolated using anti-CD19 or anti-CD3 microbeads (Miltenyi Biotec Inc., Auburn, California, United States of America) with purity >98% were obtained. Bone marrow sample was obtained from an elective orthopedic procedure and red cell-depleted using hypotonic lysis. This sample was not processed further.
# Class I MHC molecules were immunoaffinity purified from the JY cell line or from primary tumor samples, and their associated peptides were extracted as previously described in Zarling et al., 2006. Approximately 1.2-14×10^9 cells were lysed in a solution containing 20 mM Tris-HCl (pH 8.0), 150 mM NaCl, 1% CHAPS, one mM PMSF, five μg/mL aprotinin, 10 μg/mL leupeptin, 10 μg/mL pepstatin A, 1 μg/ml calyculin A, and phosphatase inhibitor (cocktails I and II; Sigma-Aldrich). The mixture was subjected to centrifugation and the resulting supernatant was passed over protein A sepharose pre-loaded with the HLA-A2-specific antibody BB7.2 or HLA-B7-specific antibody MEL Peptides were eluted from the purified class I MHC molecules with 10% acetic acid.
# HLA-B*0702 = biological target: T2, HLA-B*0702 (Homo sapiens, UniProt P01889); test: Phosphopeptides presented in association with class I molecules (HLA-B*0702) on cancer cells: melanoma and/or leukemia; design: key: Melanoma (M); Leukemia (L); L/M: Melanoma (M) and/or Leukemia (L); settings: cancer type on which the HLA-B*0702 phosphopeptide is presented
# T2 construct: endogenous in cells; host or cells: melanoma and/or leukemia cells
Substance,"Copies/cell class, ALL1 [1]",L/M (HLA-B*0702),"Copies/cell class, CLL2 [1]","Copies/cell class, JY [1]","Copies/cell class, HCL1 [1]","Copies/cell class, B Cell [1]","Copies/cell class, T Cell [1]","Copies/cell class, CLL4 [1]","Copies/cell class, AML1 [1]"
310 (RPA[pT]GGPGVA; listed as Homo sapiens) [compound 310],1 (1 indicates <1 copy/cell),L,,,,,,,
349 (RPV[pT]PVSDL; listed as Homo sapiens) [compound 349],4 (4 indicates >25 copies per cell),L,2 (2 indicates 1-5 copies/cell),4 (4 indicates >25 copies per cell),1 (1 indicates <1 copy/cell),2 (2 indicates 1-5 copies/cell),2 (2 indicates 1-5 copies/cell),,
321 (RPP[pS]PGPVL; listed as Homo sapiens) [compound 321],2 (2 indicates 1-5 copies/cell),L,1 (1 indicates <1 copy/cell),4 (4 indicates >25 copies per cell),1 (1 indicates <1 copy/cell),,2 (2 indicates 1-5 copies/cell),1 (1 indicates <1 copy/cell),
348 (RPV[pS]PGKDI; listed as Homo sapiens) [compound 348],1 (1 indicates <1 copy/cell),L,,,,,,,
277 (GPRSASLL[pS]L; listed as Homo sapiens) [compound 277],,M,,,,,,,4 (4 indicates >25 copies per cell)
317 (RPKLS[pS]PAL; listed as Homo sapiens) [compound 317],,L,,,,,,,1 (1 indicates <1 copy/cell)
291 (KPR[pS]PDHVL; listed as Homo sapiens) [compound 291],1 (1 indicates <1 copy/cell),L,1 (1 indicates <1 copy/cell),,1 (1 indicates <1 copy/cell),,,1 (1 indicates <1 copy/cell),
342 (RPSRS[pS]PGL; listed as Homo sapiens) [compound 342],,L,,,,,,,2 (2 indicates 1-5 copies/cell)
389 (VPR[pS]PKHAHSSSL; listed as Homo sapiens) [compound 389],,L,,,,,,,1 (1 indicates <1 copy/cell)
331 (RPR[pS]LEVTI; listed as Homo sapiens) [compound 331],,L,,,,,,,1 (1 indicates <1 copy/cell)
327 (RPRPH[pS]APSL; listed as Homo sapiens) [compound 327],,L,,,,,,,2 (2 indicates 1-5 copies/cell)
352 (RRK[pS]QVAEL; listed as Homo sapiens) [compound 352],,L,,,,,,,4 (4 indicates >25 copies per cell)
284 (KPPH[pS]PLVL; listed as Homo sapiens) [compound 284],4 (4 indicates >25 copies per cell),L,,,,,2 (2 indicates 1-5 copies/cell),,
319 (RPN[pS]PSPTAL; listed as Homo sapiens) [compound 319],1 (1 indicates <1 copy/cell),L,3 (3 indicates 6-25 copies per cell),4 (4 indicates >25 copies per cell),1 (1 indicates <1 copy/cell),1 (1 indicates <1 copy/cell),1 (1 indicates <1 copy/cell),2 (2 indicates 1-5 copies/cell),
350 (RPW[pS]PAVSA; listed as Homo sapiens) [compound 350],1 (1 indicates <1 copy/cell),L,,1 (1 indicates <1 copy/cell),1 (1 indicates <1 copy/cell),,,,
334 (RPR[pS]PGSNSKV; listed as Homo sapiens) [compound 334],,L,,,,,,,1 (1 indicates <1 copy/cell)
313 (RPF[pS]PREAL; listed as Homo sapiens) [compound 313],,L,,,4 (4 indicates >25 copies per cell),4 (4 indicates >25 copies per cell),4 (4 indicates >25 copies per cell),4 (4 indicates >25 copies per cell),

Substance,"Copies/cell class, ALL1 [1]",L/M (HLA-B*0702),"Copies/cell class, CLL2 [1]","Copies/cell class, JY [1]","Copies/cell class, HCL1 [1]","Copies/cell class, B Cell [1]","Copies/cell class, T Cell [1]","Copies/cell class, CLL4 [1]","Copies/cell class, AML1 [1]"
363 (RTE[pS]DSGLKK; listed as Homo sapiens) [compound 363],1 (1 indicates <1 copy/cell),L,,,,,,,
287 (KPP[pT]PGASF; listed as Homo sapiens) [compound 287],3 (3 indicates 6-25 copies per cell),L,,,,1 (1 indicates <1 copy/cell),2 (2 indicates 1-5 copies/cell),,
288 (KPPYRSH[pS]L; listed as Homo sapiens) [compound 288],2 (2 indicates 1-5 copies/cell),L,1 (1 indicates <1 copy/cell),2 (2 indicates 1-5 copies/cell),2 (2 indicates 1-5 copies/cell),,,,1 (1 indicates <1 copy/cell)
274 (FSI[pS]PVRL; listed as Homo sapiens) [compound 274],4 (4 indicates >25 copies per cell),L,,,,2 (2 indicates 1-5 copies/cell),2 (2 indicates 1-5 copies/cell),,
296 (KPY[pS]PLASL; listed as Homo sapiens) [compound 296],2 (2 indicates 1-5 copies/cell),L,1 (1 indicates <1 copy/cell),4 (4 indicates >25 copies per cell),2 (2 indicates 1-5 copies/cell),2 (2 indicates 1-5 copies/cell),3 (3 indicates 6-25 copies per cell),,
269 (EPKRR[pS]ARL; listed as Homo sapiens) [compound 269],,L,,,,,,,1 (1 indicates <1 copy/cell)
392 (YQR[pS]FDEVEGVF; listed as Homo sapiens) [compound 392],,L,,,,,,,2 (2 indicates 1-5 copies/cell)
283 (KPA[pS]PKFIVTL; listed as Homo sapiens) [compound 283],,L,,,,,,,2 (2 indicates 1-5 copies/cell)
383 (SPSTSRSGG[pS]SRL; listed as Homo sapiens) [compound 383],,L,,,,,,,1 (1 indicates <1 copy/cell)
285 (KPP[pS]PEHQSL; listed as Homo sapiens) [compound 285],1 (1 indicates <1 copy/cell),L,,,,,,,
387 (TPR[pS]PPLGL; listed as Homo sapiens) [compound 387],,L,3 (3 indicates 6-25 copies per cell),4 (4 indicates >25 copies per cell),3 (3 indicates 6-25 copies per cell),,,2 (2 indicates 1-5 copies/cell),3 (3 indicates 6-25 copies per cell)
388 (TPR[pS]PPLGLI; listed as Homo sapiens) [compound 388],,L,2 (2 indicates 1-5 copies/cell),4 (4 indicates >25 copies per cell),2 (2 indicates 1-5 copies/cell),,,2 (2 indicates 1-5 copies/cell),3 (3 indicates 6-25 copies per cell)
370 (SPGLARKR[pS]L; listed as Homo sapiens) [compound 370],,L,,,,,,,1 (1 indicates <1 copy/cell)
315 (RPI[pT]PPRNSA; listed as Homo sapiens) [compound 315],1 (1 indicates <1 copy/cell),L,,,,,,,
385 (TPAQPQRR[pS]L; listed as Homo sapiens) [compound 385],1 (1 indicates <1 copy/cell),L,,,,,,,
330 (RPR[pS]AVLL; listed as Homo sapiens) [compound 330],,L,,,,,,,2 (2 indicates 1-5 copies/cell)
